Results as given in patent publication US20020076736A1, “Methods of affecting laminin 5 processing” (priority 2000, published 2002).

Experiments:
[1] = molecular target: unprocessed human laminin 5 (α3 chain of 200 kDa, β3 chain of 140 kDa, γ2 chain of 155 kDa) (UniProt Q16787)
[2] = molecular target: unprocessed human laminin 5 (α3 chain of 200 kDa, β3 chain of 140 kDa, γ2 chain of 155 kDa), Q16787
Sequence of unprocessed human laminin 5 (α3 chain of 200 kDa, β3 chain of 140 kDa, γ2 chain of 155 kDa), Q16787 (Q16787 whole entry, looked up): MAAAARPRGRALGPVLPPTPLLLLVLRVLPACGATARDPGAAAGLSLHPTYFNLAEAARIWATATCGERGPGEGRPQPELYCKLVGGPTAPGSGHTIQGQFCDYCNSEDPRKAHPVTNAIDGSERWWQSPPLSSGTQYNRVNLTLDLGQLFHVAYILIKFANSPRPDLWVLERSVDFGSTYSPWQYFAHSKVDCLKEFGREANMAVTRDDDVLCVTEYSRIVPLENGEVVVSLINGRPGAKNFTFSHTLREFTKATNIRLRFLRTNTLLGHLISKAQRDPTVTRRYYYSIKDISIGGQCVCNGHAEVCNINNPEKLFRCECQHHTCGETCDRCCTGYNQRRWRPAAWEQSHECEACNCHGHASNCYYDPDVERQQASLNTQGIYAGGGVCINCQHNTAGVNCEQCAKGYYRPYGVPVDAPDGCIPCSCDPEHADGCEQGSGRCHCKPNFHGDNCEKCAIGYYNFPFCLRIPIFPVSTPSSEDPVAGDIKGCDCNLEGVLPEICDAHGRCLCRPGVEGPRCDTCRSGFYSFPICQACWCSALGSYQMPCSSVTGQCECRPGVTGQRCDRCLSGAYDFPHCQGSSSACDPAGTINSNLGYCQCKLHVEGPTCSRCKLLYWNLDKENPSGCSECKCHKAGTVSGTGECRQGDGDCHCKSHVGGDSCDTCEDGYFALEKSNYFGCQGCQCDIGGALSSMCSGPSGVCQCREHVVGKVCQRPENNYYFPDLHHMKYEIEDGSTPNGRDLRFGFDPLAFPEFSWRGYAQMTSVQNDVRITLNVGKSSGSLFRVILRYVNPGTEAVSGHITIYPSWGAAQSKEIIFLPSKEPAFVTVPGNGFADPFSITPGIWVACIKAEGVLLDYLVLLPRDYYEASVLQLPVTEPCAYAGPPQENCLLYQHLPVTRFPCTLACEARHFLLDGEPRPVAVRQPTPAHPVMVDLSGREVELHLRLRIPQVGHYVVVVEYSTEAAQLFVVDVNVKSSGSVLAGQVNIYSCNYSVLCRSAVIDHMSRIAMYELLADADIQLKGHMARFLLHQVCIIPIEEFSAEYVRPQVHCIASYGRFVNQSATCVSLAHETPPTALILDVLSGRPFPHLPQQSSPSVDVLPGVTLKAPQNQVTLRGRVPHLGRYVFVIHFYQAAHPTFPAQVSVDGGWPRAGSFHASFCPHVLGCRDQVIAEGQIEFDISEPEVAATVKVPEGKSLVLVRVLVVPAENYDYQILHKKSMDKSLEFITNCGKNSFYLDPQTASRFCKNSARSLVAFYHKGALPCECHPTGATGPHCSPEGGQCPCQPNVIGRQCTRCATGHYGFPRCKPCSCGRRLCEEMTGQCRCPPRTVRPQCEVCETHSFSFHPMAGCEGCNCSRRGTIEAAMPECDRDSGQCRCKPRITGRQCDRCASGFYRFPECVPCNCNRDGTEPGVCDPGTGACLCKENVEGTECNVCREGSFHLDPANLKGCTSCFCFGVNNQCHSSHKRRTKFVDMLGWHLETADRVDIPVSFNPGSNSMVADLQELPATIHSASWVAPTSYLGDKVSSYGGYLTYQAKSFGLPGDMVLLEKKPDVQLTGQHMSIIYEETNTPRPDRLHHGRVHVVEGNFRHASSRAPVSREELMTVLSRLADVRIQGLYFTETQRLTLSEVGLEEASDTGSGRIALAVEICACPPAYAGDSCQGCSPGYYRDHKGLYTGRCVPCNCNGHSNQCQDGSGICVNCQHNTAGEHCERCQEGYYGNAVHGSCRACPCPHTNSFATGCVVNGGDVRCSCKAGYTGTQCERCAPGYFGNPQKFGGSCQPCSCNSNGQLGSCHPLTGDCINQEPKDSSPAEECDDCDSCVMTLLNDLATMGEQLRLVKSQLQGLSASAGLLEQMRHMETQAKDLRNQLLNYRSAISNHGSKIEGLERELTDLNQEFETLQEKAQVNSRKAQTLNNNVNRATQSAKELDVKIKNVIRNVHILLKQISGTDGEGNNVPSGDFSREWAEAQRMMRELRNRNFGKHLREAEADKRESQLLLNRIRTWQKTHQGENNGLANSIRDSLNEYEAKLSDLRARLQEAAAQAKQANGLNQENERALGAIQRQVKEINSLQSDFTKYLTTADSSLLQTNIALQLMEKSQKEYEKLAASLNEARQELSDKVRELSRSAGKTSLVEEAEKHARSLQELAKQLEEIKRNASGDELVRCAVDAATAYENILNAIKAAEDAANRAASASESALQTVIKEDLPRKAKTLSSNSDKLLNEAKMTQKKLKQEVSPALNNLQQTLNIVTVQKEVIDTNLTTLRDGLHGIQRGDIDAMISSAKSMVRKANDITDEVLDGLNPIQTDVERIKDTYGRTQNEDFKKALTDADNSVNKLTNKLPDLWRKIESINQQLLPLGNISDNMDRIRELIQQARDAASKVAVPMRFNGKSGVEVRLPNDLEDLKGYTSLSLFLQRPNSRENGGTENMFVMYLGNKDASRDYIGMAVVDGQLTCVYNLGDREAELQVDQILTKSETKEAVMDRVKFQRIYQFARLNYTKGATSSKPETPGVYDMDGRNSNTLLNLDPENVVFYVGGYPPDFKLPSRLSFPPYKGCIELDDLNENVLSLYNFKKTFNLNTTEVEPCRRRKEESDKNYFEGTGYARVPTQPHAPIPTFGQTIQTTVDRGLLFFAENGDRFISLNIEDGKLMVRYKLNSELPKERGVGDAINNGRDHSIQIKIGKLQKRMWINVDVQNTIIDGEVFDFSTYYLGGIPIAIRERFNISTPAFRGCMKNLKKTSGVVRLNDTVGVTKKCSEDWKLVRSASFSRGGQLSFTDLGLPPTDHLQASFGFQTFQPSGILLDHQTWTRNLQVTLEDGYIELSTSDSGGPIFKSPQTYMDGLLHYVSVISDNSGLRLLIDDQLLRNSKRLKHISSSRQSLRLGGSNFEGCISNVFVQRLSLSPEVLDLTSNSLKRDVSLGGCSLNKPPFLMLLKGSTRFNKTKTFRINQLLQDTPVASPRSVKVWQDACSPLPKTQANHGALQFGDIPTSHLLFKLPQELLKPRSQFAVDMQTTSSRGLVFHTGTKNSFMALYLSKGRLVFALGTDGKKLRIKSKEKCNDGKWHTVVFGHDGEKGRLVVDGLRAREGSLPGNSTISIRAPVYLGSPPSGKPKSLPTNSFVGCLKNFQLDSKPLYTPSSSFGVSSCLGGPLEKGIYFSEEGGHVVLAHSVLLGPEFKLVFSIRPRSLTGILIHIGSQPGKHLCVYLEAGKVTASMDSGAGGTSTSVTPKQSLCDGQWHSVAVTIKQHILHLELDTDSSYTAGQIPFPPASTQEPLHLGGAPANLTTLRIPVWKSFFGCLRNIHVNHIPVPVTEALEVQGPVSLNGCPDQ

Sequence of unprocessed human laminin 5 (α3 chain of 200 kDa, β3 chain of 140 kDa, γ2 chain of 155 kDa) (Q16787 whole entry, looked up): as above

human mammalian tolloid (mTld)
cleavage of the α3 chain of laminin 5 (matrix digestion, western blot) [1]: BMP-1, mTld, mTll-1, and mTLL-2 all cleaved the α3 chain of laminin 5

B1: human mammalian tolloid-like-1 (mTll-1) (protein)
chain: AATSRTERIWPGGVIPYVIGGNFTGSQRAMFKQAMRHWEKHTCVTFIERSDEESYIVFTYRPCGCCSYVGRRGNGPQAISIGKNCDKFGIVVHELGHVIGFWHEHTRPDRDNHVTIIRENIQPGQEYNFLKMEPGEVNSLGERYDFDSIMHYARNTFSRGMFLDTILPSRDDNGIRPAIGQRTRLSKGDIAQARKLYRCPACGETLQESNGNLSSPGFPNGYPSYTHCIWRVSVTPGEKIVLNFTTMDLYKSSLCWYDYIEVRDGYWRKSPLLGRFCGDKLPEVLTSTDSRMWIEFRSSSNWVGKGFAAVYEAICGGEIRKNEGQIQSPNYPDDYRPMKECVWKITVSESYHVGLTFQSFEIERHDNCAYDYLEVRDGTSENSPLIGRFCGYDKPEDIRSTSNTLWMKFVSDGTVNKAGFAANFFKEEDECAKPDRGGCEQRCLNTLGSYQCACEPGYELGPDRRSCEAACGGLLTKLNGTITTPGWPKEYPPNKNCVWQVVAPTQYRISVKFEFFELEGNEVCKYDYVEIWSGLSSESKLHGKFCGAEVPEVITSQFNNMRIEFKSDNTVSKKGFKAHFFSDKDECSKDNGGCQHECVNTMGSYMCQCRNGFVLHDNKHDCKEAECEQKIHSPSGLITSPNWPDKYPSRKECTWEISATPGHRIKLAFSEFEIEQHQECAYDHLEVFDGETEKSPILGRLCGNKIPDPLVATGNKMFVRFVSDASVQRKGFQATHSTECGGRLKAESKPRDLYSHAQFGDNNYPGQVDCEWLLVSERGSRLELSFQTFEVEEEADCGYDYVELFDGLDSTAVGLGRFCGSGPPEEIYSIGDSVLIHFHTDDTINKKGFHIRYKSIRYPDTTHTKK
cleavage of the α3 chain of laminin 5 (matrix digestion, western blot) [2]: BMP-1, mTld, mTll-1, and mTLL-2 all cleaved the α3 chain of laminin 5

B2: human mammalian tolloid-like-2 (mTll-2) (protein)
chain: ATTSRTERIWPGGVIPYVIGGNFTGSQRAIFKQAMRHWEKHTCVTFIERTDEESFIVFSYRTCGCCSYVGRRGGGPQAISIGKNCDKFGIVAHELGHVVGFWHEHTRPDRDQHVTIIRENIQPGQEYNFLKMEAGEVSSLGETYDFDSIMHYARNTFSRGVFLDTILPRQDDNGVRPTIGQRVRLSQGDIAQARKLYKCPACGETLQDTTGNFSAPGFPNGYPSYSHCVWRISVTPGEKIVLNFTSMDLFKSRLCWYDYVEVRDGYWRKAPLLGRFCGDKIPEPLVSTDSRLWVEFRSSSNILGKGFFAAYEATCGGDMNKDAGQIQSPNYPDDYRPSKECVWRITVSEGFHVGLTFQAFEIERHDSCAYDYLEVRDGPTEESALIGHFCGYEKPEDVKSSSNRLWMKFVSDGSINKAGFAANFFKEVDECSWPDHGGCEHRCVNTLGSYKCACDPGYELAADKKMCEVACGGFITKLNGTITSPGWPKEYPTNKNCVWQVVAPAQYRISLQFEVFELEGNDVCKYDFVEVRSGLSPDAKLHGRFCGSETPEVITSQSNNMRVEFKSDNTVSKRGFRAHFFSDKDECAKDNGGCQHECVNTFGSYLCRCRNGYWLHENGHDCKEAGCAHKISSVEGTLASPNWPDKYPSRRECTWNISSTAGHRVKLTFNEFEIEQHQECAYDHLEMYDGPDSLAPILGRFCGSKKPDPTVASGSSMFLRFYSDASVQRKGFQAVHSTECGGRLKAEVQTKELYSHAQFGDNNYPSEARCDWVIVAEDGYGVELTFRTFEVEEEADCGYDYMEAYDGYDSSAPRLGRFCGSGPLEEIYSAGDSLMIRFRTDDTINKKGFHARYTSTKFQDALHMKK
cleavage activity toward the α3 chain and γ2 chain of laminin 5, compared with the other BMP-1 related proteins [2]: mTll-2 showed more potent cleavage activity toward the α3 chain and γ2 chain of laminin 5 compared to the other BMP-1 related proteins
cleavage of the α3 chain of laminin 5 (matrix digestion, western blot) [2]: BMP-1, mTld, mTll-1, and mTLL-2 all cleaved the α3 chain of laminin 5
cleavage of the γ2 chain of laminin 5 (matrix digestion, western blot) [2]: BMP-1 and mTLL-2 cleaved the γ2 chain of laminin 5

B3: human BMP-1 (bone morphogenetic protein-1) (protein)
chain: AATSRPERVWPDGVIPFVIGGNFTGSQRAVFRQAMRHWEKHTCVTFLERTDEDSYIVFTYRPCGCCSYVGRRGGGPQAISIGKNCDKFGIVVHELGHVVGFWHEHTRPDRDRHVSIVRENIQPGQEYNFLKMEPQEVESLGETYDFDSIMHYARNTFSRGIFLDTIVPKYEVNGVKPPIGQRTRLSKGDIAQARKLYKCPACGETLQDSTGNFSSPEYPNGYSAHMHCVWRISVTPGEKIILNFTSLDLYRSRLCWYDYVEVRDGFWRKAPLRGRFCGSKLPEPIVSTDSRLWVEFRSSSNWVGKGFFAVYEAICGGDVKKDYGHIQSPNYPDDYRPSKVCIWRIQVSEGFHVGLTFQSFEIERHDSCAYDYLEVRDGHSESSTLIGRYCGYEKPDDIKSTSSRLWLKFVSDGSINKAGFAVNFFKEVDECSRPNRGGCEQRCLNTLGSYKCSCDPGYELAPDKRRCEAACGGFLTKLNGSITSPGWPKEYPPNKNCIWQLVAPTQYRISLQFDFFETEGNDVCKYDFVEVRSGLTADSKLHGKFCGSEKPEVITSQYNNMRVEFKSDNTVSKKGFKAHFFSEKRPALQPPRGRPHQLKFRVQKRNRTPQ
cleavage of the α3 chain of laminin 5 (matrix digestion, western blot) [2]: BMP-1, mTld, mTll-1, and mTLL-2 all cleaved the α3 chain of laminin 5
cleavage of the γ2 chain of laminin 5 (matrix digestion, western blot) [2]: BMP-1 and mTLL-2 cleaved the γ2 chain of laminin 5
processing of the laminin 5 α3 chain (about 1 µg laminin 5 with 30 ng/ml BMP-1, 16 hours at 37° C., western blot) [2]: laminin α3 chain was completely processed from 200 kDa to 165 kDa by BMP-1
